Article doi:10.1101/2024.04.04.584535, “Human Saposin B Ligand Binding and Presentation to α-Galactosidase A” (bioRxiv, 2024)
Blank lines part the entries; values can stand above or below the molecule they belong to.

B2: α-galactosidase A D170A (catalytic nucleophile mutant) (enzyme, human)
chain: LDNGLARTPTMGWLHWERFMCNLDCQEEPDSCISEKLFMEMAELMVSEGWKDAGYEYLCIDDCWMAPQRDSEGRLQADPQRFPHGIRQLANYVHSKGLKLGIYADVGNKTCAGFPGSFGYYDIDAQTFADWGVDLLKFAGCYCDSLENLADGYKHMSLALNRTGRSIVYSCEWPLYMWPFQKPNYTEIRQYCNHWRNFADIDDSWKSIKSILDWTSFNQERIVDVAGPGGWNDPDMLVIGNFGLSWNQQVTQMALWAIMAAPLFMSNDLRHISPQAKALLQDKDVIAINQDPLGKQGYQLRQGDNFEVWERPLSGLAWAVAMINRQEIGGPRSYTIAVASLGKGVACNPACFITQLLPVKRKLGFYEWTSRLRSHINPTGTVLLQLENTMQMSLKDLL
notes: human α-galactosidase A (UniProt P06280), D170A mutant; Secreted into the Sf9 supernatant, so the signal peptide is probably removed (surmised); Glycosylated; Homodimer; also called GLA^D170A; GLA

What was measured:
[1] = target: Sphingolipid activator protein B (saposin B) (human) (UniProt P07602); experiment: crystal structure; SapB co-crystallised with Gb3-NBD at about molar equivalence; 3.25 M malonate pH 5, 20 °C; 2.68 Å
[2] = target: Sphingolipid activator protein B (saposin B) (human) (UniProt P07602); experiment: cross-linking; BS3 cross-linker (0-1 mM), 10 μM GLA^D170A or GAA, 50-100 μM SapB (with 20% SapB^ANBD in some gels) or 100 μM SapD, 0-200 μM Gb3-NBD, PBS pH 6.5, one hour; Tricine-SDS-PAGE with One-Step Blue stain, in-gel NBD fluorescence and anti-GLA western blot; also at 10 μM SapB^ANBD, 1 μM GLA^D170A, 50 μM Gb3-NBD
[3] = target: T1, SapD (saposin D) (Homo sapiens, UniProt P07602); experiment: NBD fluorescence equilibrium binding, acidic pH only
T1 construct: gene PSAP; mature saposin D, E. coli expressed
T1 sequence (P07602 405-486): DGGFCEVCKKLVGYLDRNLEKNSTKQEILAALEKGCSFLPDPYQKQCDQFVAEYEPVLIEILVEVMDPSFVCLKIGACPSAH

[4] = target: T2, SapB (saposin B; sphingolipid activator protein B) (Homo sapiens, UniProt P07602); experiment: NBD fluorescence equilibrium binding (pH […] h); also SEC co-migration and LC-MS of co-crystals; set-up: gene PSAP; mature saposin B, E. coli expressed (SapB dimer)
T2 sequence (P07602 195-273): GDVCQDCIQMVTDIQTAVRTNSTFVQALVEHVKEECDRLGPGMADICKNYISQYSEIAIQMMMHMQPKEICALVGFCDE

[5] = target: T2, SapB (saposin B; sphingolipid activator protein B); experiment: NBD fluorescence equilibrium binding (pH […] days), weak; set-up: gene PSAP; mature saposin B, E. coli expressed
[6] = target: T3, α-galactosidase A, wild type (human, UniProt P06280 32-429)
T3 sequence (looked up): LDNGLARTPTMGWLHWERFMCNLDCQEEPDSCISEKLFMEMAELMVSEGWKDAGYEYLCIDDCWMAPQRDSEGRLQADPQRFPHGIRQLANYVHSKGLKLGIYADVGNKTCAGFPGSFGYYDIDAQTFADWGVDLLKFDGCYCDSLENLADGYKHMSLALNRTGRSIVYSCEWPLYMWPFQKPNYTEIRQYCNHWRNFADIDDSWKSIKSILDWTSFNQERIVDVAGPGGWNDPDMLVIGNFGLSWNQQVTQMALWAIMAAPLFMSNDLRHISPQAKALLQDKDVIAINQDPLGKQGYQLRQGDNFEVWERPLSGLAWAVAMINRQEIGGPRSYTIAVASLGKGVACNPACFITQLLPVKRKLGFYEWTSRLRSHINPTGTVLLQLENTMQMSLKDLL

[7] = substrate: O=[N+]([O-])c1ccc(O[C@H]2O[C@H](CO)[C@H](O)[C@H](O)[C@H]2O)cc1; experiment: purified protein; assay type: biochemical, Homo sapiens
[8] = target: the molecule itself; experiment: crystal structure; SapB preincubated with DDAO detergent (~1:47) at pH 5, mixed with GLA^D170A; crystals in 0.1 M Tris pH 8, 1 M ammonium sulfate, 20 °C; 3.53 Å
[9] = target: T3, α-galactosidase A, wild type; experiment: cell-based or functional assay
[10] = target: B2; experiment: cross-linking; BS3 cross-linker (0-1 mM), 10 μM GLA^D170A or GAA, 50-100 μM SapB (with 20% SapB^ANBD in some gels) or 100 μM SapD, 0-200 μM Gb3-NBD, PBS pH 6.5, one hour; Tricine-SDS-PAGE with One-Step Blue stain, in-gel NBD fluorescence and anti-GLA western blot; also at 10 μM SapB^ANBD, 1 μM GLA^D170A, 50 μM Gb3-NBD; conditions: both partners purified

- stoichiometry N [1]: 2
- stoichiometry N [2]: 2
Molecule: Sphingolipid activator protein B (saposin B) (from UniProt P07602 195-273) (natural protein)

- Kd [3]: 38 ± 2 µM
- Kd [4]: 5.8 ± 0.5 µM
Molecule: CCCCCCCCCCCCC/C=C/[C@@H](O)[C@H](CO[C@@H]1O[C@H](CO)[C@@H](O[C@@H]2O[C@H](CO)[C@H](O[C@H]3O[C@H](CO)[C@H](O)[C@H](O)[C@H]3O)[C@H](O)[C@H]2O)[C@H](O)[C@H]1O)NC(=O)CCCCCCCCCCCNc1ccc([N+](=O)[O-])c2nonc12 [Gb3-NBD]

- Kd [5]: > 95 µM
Molecule: CCCCCCCCCCCCCCC[C@@H](O)[C@H](CO)NC(=O)CCCCCCCCCCCNc1ccc([N+](=O)[O-])c2nonc12 [Cer-NBD]

- galactose production from Gb3-NBD by GLA in an 18-hour enzyme-activator assay, relative to wild-type SapB [6]: 80%
Molecule: SapB^ANBD (SapB N21C labelled with IANBD amide) (natural protein)

B1: α-galactosidase A (GLA) (Homo sapiens) (protein)
chain: LDNGLARTPTMGWLHWERFMCNLDCQEEPDSCISEKLFMEMAELMVSEGWKDAGYEYLCIDDCWMAPQRDSEGRLQADPQRFPHGIRQLANYVHSKGLKLGIYADVGNKTCAGFPGSFGYYDIDAQTFADWGVDLLKFDGCYCDSLENLADGYKHMSLALNRTGRSIVYSCEWPLYMWPFQKPNYTEIRQYCNHWRNFADIDDSWKSIKSILDWTSFNQERIVDVAGPGGWNDPDMLVIGNFGLSWNQQVTQMALWAIMAAPLFMSNDLRHISPQAKALLQDKDVIAINQDPLGKQGYQLRQGDNFEVWERPLSGLAWAVAMINRQEIGGPRSYTIAVASLGKGVACNPACFITQLLPVKRKLGFYEWTSRLRSHINPTGTVLLQLENTMQMSLKDLL
notes: wild-type human GLA, C-terminal 2x-FLAG, Sf9 expressed
- Km [7]: 9.9 mM

Molecule: B2
- Km [7]: 7.4 mM
- stoichiometry N [8]: 2

- free galactose released from Gb3-NBD by wild-type GLA after 2.5 hours in acidic buffer (Amplex Red galactose assay); SapD at a tenfold molar excess to GLA [9]: ~5 µM
- binding result [10]: binds
B3: Saposin D (natural protein, human, UniProt P07602 405-486, looked up)
chain: DGGFCEVCKKLVGYLDRNLEKNSTKQEILAALEKGCSFLPDPYQKQCDQFVAEYEPVLIEILVEVMDPSFVCLKIGACPSAH
notes: saposin D, the mature cut product of prosaposin (UniProt P07602); Tag printed as enterokinase-cleavable N-terminal His8-DDDDK-GAS; GAS probably left after cleavage (surmised); also called SapD; source: E. coli Shuffle T7 Express, purified (heat shock, Ni agarose, enterokinase cleavage, SEC); not shown: His8, N-terminal, cleaved
